For assay [1], the target named is ^125I labeled (Y)HA306–318 (influenza). The assay is described as follows: radioligand binding.
The target in assay [2] is DP401: DPA1*0103/DPB1*0401 (human). The assay is described as follows: AlphaScreen or HTRF.
Assay [3] addresses DR2a (DRA*0101/DRB5*0101), biotinylated, direct LOCI assay at pH 6 (human). The assay is described as follows: AlphaScreen or HTRF.
In assay [4] the target is DR4 (DRA*0101/DRB1*0401), biotinylated, LOCI assay (human). The assay is described as follows: AlphaScreen or HTRF.
In assay [5] the target is DR2a (DRA*0101/DRB5*0101) with non-biotinylated β chain, competitive LOCI assay (human). The assay is described as follows: AlphaScreen or HTRF.
The target of assay [6] is I-E^d (mouse MHC class II) (mouse) (UniProt P01904). The assay is described as follows: AlphaScreen or HTRF.
For assay [7], the target named is DRB1*0813: DRA*0101/DRB1*0813 (human). The assay is described as follows: AlphaScreen or HTRF.
The target of assay [8] is DRB3*0301: DRA*0101/DRB3*0301 (human). The assay is described as follows: AlphaScreen or HTRF.
Assay [9] deals with DR1GrpE: DR1 α chain 1–181 and β chain 1–190 fused C-terminally to GrpE, not biotinylated (human). The assay is described as follows: AlphaScreen or HTRF.

As for “DR1: DRA*0101(1–191)/DRB1*0101(1–198) (complex)”, in assay [1], the EC50 stood at 20 nM.
Turning to “6xH Influenza A (PR8) HA 109–119 peptide …”, the Kd turned out to be 1 nM in assay [2]; 9 nM in assay [3]; 1870 nM in assay [4]; 984 nM in assay [6]; 181 nM in [7]; 1530 nM in assay [8]. In addition, the IC50 in assay [5] stood at 23 nM; in assay [9], 325 nM.

(Values after PMC2690590, “Functional recombinant MHC class II molecules and high-throughput peptide-binding assays” (Immunome Research, 2009).)
